According to paper PMC11077089, “Molecular basis of A. thaliana KEOPS complex in biosynthesizing tRNA t6A”:

T1: KAE1;BUD32;CGI121;PCC1 (Arabidopsis thaliana;Arabidopsis …, UniProt O49653;Q94K14;Q6NMZ4;Q8GWD7 1-353;1-226;1-172;1-96, |||)
T1 sequence 1: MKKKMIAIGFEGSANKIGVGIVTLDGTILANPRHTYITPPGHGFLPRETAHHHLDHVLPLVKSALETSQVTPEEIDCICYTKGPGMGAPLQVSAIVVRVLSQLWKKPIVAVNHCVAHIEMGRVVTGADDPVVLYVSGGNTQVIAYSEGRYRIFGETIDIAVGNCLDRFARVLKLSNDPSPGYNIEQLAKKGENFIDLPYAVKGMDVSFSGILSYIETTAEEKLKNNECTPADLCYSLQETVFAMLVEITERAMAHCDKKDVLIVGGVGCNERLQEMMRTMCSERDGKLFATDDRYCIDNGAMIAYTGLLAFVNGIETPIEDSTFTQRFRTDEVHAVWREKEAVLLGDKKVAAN
T1 sequence 2: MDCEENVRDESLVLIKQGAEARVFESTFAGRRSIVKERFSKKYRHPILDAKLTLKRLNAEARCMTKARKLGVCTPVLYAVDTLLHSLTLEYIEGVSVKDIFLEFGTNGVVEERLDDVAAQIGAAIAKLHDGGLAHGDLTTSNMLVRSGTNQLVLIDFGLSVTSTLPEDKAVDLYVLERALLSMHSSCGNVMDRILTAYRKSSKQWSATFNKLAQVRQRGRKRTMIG
T1 sequence 3: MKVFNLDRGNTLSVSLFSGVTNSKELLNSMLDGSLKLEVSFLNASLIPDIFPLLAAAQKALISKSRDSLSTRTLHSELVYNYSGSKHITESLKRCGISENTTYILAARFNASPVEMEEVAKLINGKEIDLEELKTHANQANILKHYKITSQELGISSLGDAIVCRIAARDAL
T1 sequence 4: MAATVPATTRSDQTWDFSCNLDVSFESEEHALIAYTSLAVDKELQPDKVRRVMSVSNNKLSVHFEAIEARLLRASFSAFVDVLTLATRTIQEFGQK

B1: tRNASerGCU (structured_RNA)
RNA: GUCGCUUUGGCCGAGUGGUUAAGGCGUGUUCCUGCUAAGUACAUGGGGUUUCCCCGCGAGAGUUCGAAUCUGUCAGGCGACGCCA
B2: tRNAArgUCU (structured_RNA)
RNA: GCGCCCGUGGCCUAAUGGAUAAGGCGUUUGACUUCUAAUCAAACGAUUGUGGGUUCGAGUCCCACCGGGCGUGCCA
B3: tRNAIleUAU (structured_RNA)
RNA: GCUCCCGUAGCUCAGUUGGUUAGAGCGUUGGUCUUAUGAGCCGAAGGUCGCGGGUUCGAGCCCCGCCGGAAGCACCA
B4: tRNALysUUU (structured_RNA)
RNA: GCCGUCUUAGCUCAGCGGUAGAGCGCGUGGCUUUUAACCACGUGGCCGUGGGUUCGAUCCCCACAGACGGCGCCA
B5: tRNAIleAAU (structured_RNA)
RNA: GGCCUAUUAGCUCAGUUGGUUAGAGCGUCGUGCUAAUAACGCGAAGGUCACAGGUUCGAUCCCUGUAUAGGCCACCA
B6: tRNAAsnGUU (structured_RNA)
RNA: GCUGGAAUAGCUCAGUAGGUUUAGAGCGUGUGGCUGUUAACCUCAAGGUCGGAGGUUCGACCCCUCCUUUCAGCGCCA
B7: tRNAThrCGU (structured_RNA)
RNA: GCCUCCGUAGCAUAGUGGUAUUGCGUUCGCUUCGUAAGCGAAAGGUCGUGAGUUCGAUCCUCACCGUAGGCUCCA

Biological target: T1, KAE1;BUD32;CGI121;PCC1
Test: EMSA; 20 uM each; MST: 20 mM PBS pH 7.5, 300 mM NaCl, 0.05% Tween 20, 25 C, 50 nM RNA; EMSA: 20 mM Tris-HCl pH 7.5, 300 mM NaCl, 5 mM b-mercaptoethanol, 20% glycerol, agarose gel in Tris-glycine pH 8.0 (8.5 for FAM-RNA), 4 C
Conditions: protein: recombinant;recombinant;recombinant;recombinant; tags: none (6His on partner PCC1);none (6His on partner CGI121);6His (C-term);6His (C-term); chain copies: 2;2;2;2; tRNA cloverleaf

Row | Binder | binding result
1 | B1 | binds
2 | B2 | binds
3 | B3 | binds
4 | B4 | binds
5 | B5 | binds
6 | B6 | binds
7 | B7 | binds
